Experimental data taken from patent US20150087807A1.

Molecular target: synthetic mimetic peptide m1E41920
Test: indirect ELISA, m1E41920 peptide coated, nonlinear regression (GraphPad Prism)

B1: recombinant murine single chain variable fragment of 1E4 (muscFv1E4) (scFv)
scFv: ECLEESGGGLVRPGNSLKLSCVTSGFTFSNYRVHWLRQPPGKRLEWIAVIAVKSDNYGANYAESVKGRFTISRDDSKSSVYLQMNRLREEDTATYYCRSTVVVMGDYFAMDYWGQGTSVTVSSGGGGSGGGGSGGGGSDIELTQSPAILSVSPGERVSFSCRASQNIGTYIHWYQQRTNGSPRLLIKYASESVSGIPSRFSGRGSGTDFTLSISSVESEDIADYYCQQSNTWPYTFGGGTKLEIKRADAAPTVSKLAAALEHHHHHH
EC50: 73.1 nM

B2: humanized single chain variable fragment of 1E4 (huscFv1E4) (scFv)
scFv: QCLVESGGGVVQPGRSLRLSCAASGFTFSNYRVHWVRQAPGKGLEWIAVIAVKSDNYGANYAESVKGRFTISRDNSKNTLYLQMNSLRAEDTAVYYCRSTVVVMGDYFAMDYWGQGTSVTVSSGGGGSGGGGSGGGGSDIVLTQSPAFLSVTPGEKVTITCRASQNIGTYIHWYQQKPDQAPKLLIKYASESVSGVPSRFSGSGSGTDFTFTISSLEAEDAATYYCQQSNTWPYTFGGGTKLEIKRADAAPTVSKLAAALEHHHHHH
EC50: 62.3 nM
